# Test results taken from the Human Domainome abundance scans (Beltran et al. 2025).
# ± gives the uncertainty stated by the source.
# B1: Zinc finger homeobox protein 4, residues 2562 to 2617; numbered along this chain, Q86UP3 (parent)
# chain: RLRTTITPEQLEILYEKYLLDSNPTRKMLDHIAREVGLKKRVVQVWFQNTRARERK
# Variants of: B1
# Experiment: abundance fitness (aPCA) (normalised: wild type 0, dead -1); higher = more abundant; growth selection in yeast, the domain comes from the species named
# Settings: Homo sapiens
row,Variant,abundance fitness
1,L20I,-0.079 ± 0.072
2,L20M,-0.112 ± 0.068
3,L20N,-0.122 ± 0.084
4,L20A,-0.103 ± 0.07
5,L20F,-0.062 ± 0.082
6,E12H,-0.307 ± 0.31
7,E12Q,0.033 ± 0.085
8,E12W,-0.496 ± 0.077
9,E12I,0.294 ± 0.13
10,E12D,-0.05 ± 0.097
11,T25R,-0.72 ± 0.17
12,T25G,-0.331 ± 0.061
13,T25E,0.095 ± 0.075
14,T25I,-0.526 ± 0.44
15,T25C,0.181 ± 0.15
16,T25Q,-0.476 ± 0.41
17,T25M,-0.364 ± 0.22
18,R53C,0.045 ± 0.097
19,R53F,0.066 ± 0.1
20,R53N,0.052 ± 0.13
21,R53S,0.168 ± 0.072
22,R53E,0.394 ± 0.065
23,R53W,-0.315 ± 0.077
24,R53P,-0.373 ± 0.12

row,Variant,abundance fitness
1,R53L,0.039 ± 0.064
2,R53K,0.14 ± 0.1
3,L38G,-0.915 ± 0.08
4,L38E,-0.488 ± 0.16
5,L38K,-0.254 ± 0.12
6,L38M,-0.132 ± 0.072
7,L38D,-0.718 ± 0.27
8,L38A,-0.508 ± 0.073
9,L38Q,-0.755 ± 0.13
10,K27T,-0.147 ± 0.087
11,K27D,0.478 ± 0.1
12,K27Y,-0.142 ± 0.065
13,K27E,0.147 ± 0.11
14,K27H,0.083 ± 0.12
15,K27A,0.169 ± 0.07
16,K27P,0.128 ± 0.1
17,K56M,-0.023 ± 0.3
18,K56G,0.184 ± 0.34
19,K56S,-0.043 ± 0.14
20,T50G,-0.367 ± 0.064
21,T50A,0.041 ± 0.073
22,T50R,0.08 ± 0.056
23,T50F,-0.069 ± 0.096
24,T50Y,-0.107 ± 0.21

row,Variant,abundance fitness
1,P24K,-0.948 ± 0.2
2,P24R,-0.925 ± 0.07
3,P24D,-0.679 ± 0.064
4,P24S,-0.968 ± 0.16
5,P24L,-0.639 ± 0.061
6,P24V,-0.82 ± 0.098
7,A33S,-0.158 ± 0.18
8,A33W,-0.696 ± 0.4
9,A33D,-0.526 ± 0.33
10,A33L,-0.732 ± 0.2
11,V36W,-0.638 ± 0.11
12,V36A,-0.103 ± 0.076
13,V36N,-0.415 ± 0.086
14,V36L,-0.121 ± 0.085
15,V36Y,-0.586 ± 0.29
16,V36I,-0.398 ± 0.11
17,V36C,-0.223 ± 0.077
18,L19V,-0.055 ± 0.064
19,L19D,-0.098 ± 0.097
20,L19Q,-0.214 ± 0.21
21,L19R,-0.112 ± 0.071
22,L19S,-0.034 ± 0.071
23,K39G,0.117 ± 0.047
24,K39F,-0.862 ± 0.39

row,Variant,abundance fitness
1,K39W,-0.779 ± 0.17
2,K39S,0.278 ± 0.096
3,K39L,0.072 ± 0.093
4,K39H,-0.072 ± 0.085
5,K39M,-0.405 ± 0.26
6,K39D,0.11 ± 0.12
7,R1S,0.311 ± 0.17
8,R1A,0.743 ± 0.28
9,R1T,-0.054 ± 0.27
10,R55D,0.262 ± 0.082
11,R55K,-0.035 ± 0.22
12,R55P,0.001 ± 0.11
13,R55C,0.063 ± 0.12
14,R55Q,-0.078 ± 0.26
15,R55H,-0.086 ± 0.16
16,R55M,0.128 ± 0.097
17,R55L,0.128 ± 0.07
18,R55Y,0.05 ± 0.45
19,T5R,-0.34 ± 0.076
20,T5D,0.068 ± 0.23
21,T5A,-0.398 ± 0.22
22,T5V,0.025 ± 0.084
23,T5Q,0.085 ± 0.13
24,T5N,0.265 ± 0.19

row,Variant,abundance fitness
1,E9H,-0.257 ± 0.098
2,E9F,-0.399 ± 0.079
3,E9Y,-0.297 ± 0.055
4,I32S,-1.27 ± 0.32
5,I32A,-0.786 ± 0.18
6,I32K,-0.796 ± 0.24
7,I32E,-0.998 ± 0.18
8,I32V,-0.204 ± 0.055
9,I32L,-0.15 ± 0.069
10,Y18I,-0.246 ± 0.27
11,Y18T,-0.874 ± 0.23
12,Y18A,-1.06 ± 0.2
13,Y18D,-1.13 ± 0.4
14,L2Q,-0.603 ± 0.2
15,L2F,0.066 ± 0.063
16,L2H,-0.357 ± 0.22
17,L2S,0.161 ± 0.068
18,L2V,-0.023 ± 0.061
19,A52P,-0.693 ± 0.15
20,A52F,-0.498 ± 0.28
21,A52C,-0.702 ± 0.24
22,A52D,0.384 ± 0.056
23,A52M,-0.268 ± 0.11
24,A52Y,-0.781 ± 0.47

row,Variant,abundance fitness
1,Q10D,0.18 ± 0.12
2,Q10F,-0.941 ± 0.24
3,Q10N,-0.651 ± 0.35
4,Q10C,-0.847 ± 0.2
5,Q10I,-0.086 ± 0.22
6,Q10T,-0.587 ± 0.15
7,Q10P,-0.869 ± 0.15
8,Q10E,-0.641 ± 0.13
9,G37C,-0.006 ± 0.096
10,G37Q,-0.051 ± 0.086
11,G37V,-0.643 ± 0.072
12,G37P,-0.812 ± 0.23
13,G37N,0.107 ± 0.14
14,G37Y,-0.962 ± 0.24
15,G37M,-0.465 ± 0.056
16,G37L,-0.71 ± 0.073
17,G37D,-0.065 ± 0.094
18,G37K,-0.169 ± 0.06
19,G37I,-0.828 ± 0.27
20,I6G,-0.264 ± 0.049
21,I6M,0.144 ± 0.14
22,I6E,-0.477 ± 0.14
23,I6D,-0.759 ± 0.13
24,I6S,-0.652 ± 0.06

row,Variant,abundance fitness
1,I6V,-0.248 ± 0.081
2,I6K,-0.852 ± 0.37
3,D21K,-0.727 ± 0.097
4,D21Q,-0.352 ± 0.1
5,D21T,-0.458 ± 0.061
6,D21Y,-0.5 ± 0.063
7,D21S,-0.433 ± 0.064
8,D21C,-0.378 ± 0.11
9,D21R,-0.796 ± 0.099
10,L29Y,-0.239 ± 0.18
11,L29V,-0.024 ± 0.062
12,L29E,0.155 ± 0.082
13,L29M,-0.429 ± 0.12
14,L29Q,-0.124 ± 0.068
15,L29D,-0.721 ± 0.17
16,I13Q,0.167 ± 0.095
17,I13S,-0.041 ± 0.091
18,I13C,-0.389 ± 0.14
19,N49H,-0.423 ± 0.16
20,N49M,0.029 ± 0.13
21,N49L,-0.25 ± 0.062
22,N49A,0.043 ± 0.08
23,N49G,-0.182 ± 0.059
